Experimental data reported in article PMC2613638 (The Journal of Biological Chemistry, 2009).
Values joined by “and” are separate entries in the source; they are usually repeats but may differ in a detail not shown here. Identical values can stand only once.

T1: human CMKLR1 (Homo sapiens, UniProt Q99788)
T1 sequence (Q99788 1-373): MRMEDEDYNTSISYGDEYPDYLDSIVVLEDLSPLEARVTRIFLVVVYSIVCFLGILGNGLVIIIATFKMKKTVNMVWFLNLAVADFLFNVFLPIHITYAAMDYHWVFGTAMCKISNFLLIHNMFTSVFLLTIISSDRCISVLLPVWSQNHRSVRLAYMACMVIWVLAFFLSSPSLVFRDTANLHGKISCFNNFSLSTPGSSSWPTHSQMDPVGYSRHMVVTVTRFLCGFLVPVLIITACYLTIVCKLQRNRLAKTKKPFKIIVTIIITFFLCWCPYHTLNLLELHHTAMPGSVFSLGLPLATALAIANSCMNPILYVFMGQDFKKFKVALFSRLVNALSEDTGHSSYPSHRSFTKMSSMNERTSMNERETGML

T2: CPN (Homo sapiens, UniProt P15169)
T2 sequence (P15169 21-458): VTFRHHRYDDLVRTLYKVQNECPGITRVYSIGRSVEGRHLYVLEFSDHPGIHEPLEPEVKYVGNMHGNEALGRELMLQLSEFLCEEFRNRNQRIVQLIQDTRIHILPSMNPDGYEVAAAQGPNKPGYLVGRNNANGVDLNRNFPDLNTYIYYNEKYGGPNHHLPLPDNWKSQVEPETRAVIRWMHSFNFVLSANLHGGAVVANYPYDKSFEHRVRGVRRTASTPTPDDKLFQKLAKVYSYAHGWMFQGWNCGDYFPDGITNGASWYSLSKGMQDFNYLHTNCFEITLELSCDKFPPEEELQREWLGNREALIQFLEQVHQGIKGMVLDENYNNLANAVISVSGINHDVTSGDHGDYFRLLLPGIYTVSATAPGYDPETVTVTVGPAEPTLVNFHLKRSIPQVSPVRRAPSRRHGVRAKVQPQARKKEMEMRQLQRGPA

T3: CPB (TAFIa) (Homo sapiens, UniProt Q96IY4)
T3 sequence (Q96IY4 115-423): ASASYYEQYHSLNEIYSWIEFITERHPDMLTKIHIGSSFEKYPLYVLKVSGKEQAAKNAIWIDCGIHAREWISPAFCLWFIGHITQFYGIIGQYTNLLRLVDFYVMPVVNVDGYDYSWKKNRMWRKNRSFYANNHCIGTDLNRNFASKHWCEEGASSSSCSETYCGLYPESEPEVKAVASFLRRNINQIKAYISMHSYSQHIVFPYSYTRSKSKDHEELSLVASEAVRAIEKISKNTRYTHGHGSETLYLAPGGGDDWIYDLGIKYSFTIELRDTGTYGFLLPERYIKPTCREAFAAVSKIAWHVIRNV

B1: prochemerin: recombinant full-length prochemerin with carboxyl-terminal His6 tag, expressed in insect cells (protein, UniProt Q99969 21-163, looked up)
pro-form: ELTEAQRRGLQVALEEFHKHPPVQWAFQETSVESAVDTPFPAGIFVRLEFKLQQTSCRKRDWKKPECKVRPNGRKRKCLACIKLGSEDKVLGRLVHCPIETQVLREAEEHQETQCLRVQRAGEDPHSFYFPGQFAFSKALPRS
modifications: pro-form C-terminal His6 tag

Tests used:
human CMKLR1 = molecular target: T1, human CMKLR1; assay: In vitro transwell chemotaxis of CMKLR1/L1.2 transfectants; assay type: cell-based
CPN = molecular target: T2, CPN; conditions: CPN cleavage of comparison peptides; cited from earlier work
CPB (TAFIa) = molecular target: T3, CPB (TAFIa); conditions: CPB cleavage of comparison peptides; cited from earlier work
Tryptase = conditions: cited from earlier work
plasmin = assay: plasmin; conditions: human
Staphopain B = conditions: cited from earlier work
Elastase = conditions: cited from earlier work
Cathepsin G = conditions: cited from earlier work
plasmin followed by CPN = assay: plasmin; conditions: 37 °C, up to 30 min plasmin, then 30 min CPN
plasmin followed by CPB = assay: plasmin; conditions: human, 37 °C, up to 30 min plasmin, then 30 min CPB
Human plasmin = assay: plasmin; conditions: 37°, up to 30 min
washed platelets = assay: Chemerin release from washed platelets; assay type: cell-based, human; conditions: 37 °C for 3 min; thrombin receptor-activating peptide 20 μM, collagen 10 μg/ml, ADP 10 μM; Fig. 6C

Molecule | Km (CPN) | kcat (CPN) | kcat/Km (CPN) | Km (CPB (TAFIa)) | kcat (CPB (TAFIa)) | kcat/Km (CPB (TAFIa)) | other results
N=C(N)NCCSCC(CS)C(=O)O (racemic) [MGTA, DL-2-Mercaptomethyl-3 guanidinoethylthiopropanoic acid] | – | – | – | – | – | – | effect on PPP-induced increase of bioactivity of plasmin-cleaved prochemerin (human CMKLR1; MGTA 5 μM in PPP, treated prochemerin 0.2 nM, Fig. 4B): inhibited
Bradykinin (RPPGFSPFR; Bradykinin; UniProt P01042 381-389, looked up) | 303 ± 29.1 µM | 9.1 ± 0.2 s⁻¹ | 30000 M⁻¹ s⁻¹ | 70.6 ± 4.8 µM | 19.7 ± 4.8 s⁻¹ | 280000 M⁻¹ s⁻¹ | –
C3a^69-77: comparison substrate peptide derived from C3a (RASHLGLAR; C3a anaphylatoxin; UniProt P01024 740-748, looked up, fragment) | 77.1 ± 11.2 µM | 57.9 ± 2.1 s⁻¹ | 750000 M⁻¹ s⁻¹ | 35.9 ± 6.6 µM | 8.4 ± 0.6 s⁻¹ | 230000 M⁻¹ s⁻¹ | –
C5a^66-74: comparison substrate peptide derived from C5a (SHKDMQLGR; C5a anaphylatoxin; UniProt P01031 743-751, looked up, fragment) | 602 ± 74.3 µM | 9.3 ± 0.4 s⁻¹ | 15000 M⁻¹ s⁻¹ | 219 ± 16.2 µM | 29.5 ± 0.7 s⁻¹ | 130000 M⁻¹ s⁻¹ | –
NH2-ADPELTEAQ...FAFSKALPRSPHHHHHH-COOH | – | – | – | – | – | – | fragment found (Tryptase): ...YFPGQFAFSK (21-158) and ...YFPGQFA (21-155); fragment found (plasmin): NH2-YFPGQFAFSK-COOH form (21-158); fragment found (Staphopain B): ...YFPGQFAFS (21-157); fragment found (Elastase): ...YFPGQFAFS (21-157) and ...YFPGQFA (21-155) and ...YFPG (21-152); fragment found (Cathepsin G): ...YFPGQFAF (21-156)
YFPGQFAFSKALPRS | – | – | – | – | – | – | fragment found (plasmin followed by CPN): 9-mer (YFPGQFAFS); fragment found (plasmin followed by CPB): 9-mer (YFPGQFAFS); fragment found (Human plasmin): 10-mer (YFPGQFAFSK)
collagen | – | – | – | – | – | – | release of chemerin from washed platelets (washed platelets): induced the release of chemerin
thrombin | – | – | – | – | – | – | chemerin activities of PPP after addition of thrombin (human CMKLR1; thrombin 5 units/ml added to PPP, 37 °C 5 min, Fig. 6B): had no effect; chemotaxis of CMKLR1-transfected cells (human CMKLR1; thrombin itself): did not induce the chemotaxis
B1 | – | – | – | – | – | – | CMKLR1-mediated chemotaxis after treatment with CPN and CPB alone (human CMKLR1; data not shown): did not induce CMKLR1-mediated chemotaxis; chemotactic activity after sequential treatment with plasmin and CPN or CPB (human CMKLR1; plasmin 1 μM, CPN or CPB 30 nM, final chemerin concentration 0.5 nM, Fig. 3B): dramatically enhanced; chemotactic bioactivity after plasmin alone (human CMKLR1; prochemerin activation by plasmin, dose-response, Fig. 3A): increased its chemotactic bioactivity
